Source: article doi:10.1101/521815 (bioRxiv, 2019)

Legend:
[1] = target: M1-linked tetra-ubiquitin (UniProt P0CG48 1-76; P0CG48 1-76; P0CG48 1-76; P0CG48 1-76); test: SPR
crystal structure = target: the molecule itself; test: crystal structure

Chain of M1-linked tetra-ubiquitin (P0CG48 1-304, one chain of several): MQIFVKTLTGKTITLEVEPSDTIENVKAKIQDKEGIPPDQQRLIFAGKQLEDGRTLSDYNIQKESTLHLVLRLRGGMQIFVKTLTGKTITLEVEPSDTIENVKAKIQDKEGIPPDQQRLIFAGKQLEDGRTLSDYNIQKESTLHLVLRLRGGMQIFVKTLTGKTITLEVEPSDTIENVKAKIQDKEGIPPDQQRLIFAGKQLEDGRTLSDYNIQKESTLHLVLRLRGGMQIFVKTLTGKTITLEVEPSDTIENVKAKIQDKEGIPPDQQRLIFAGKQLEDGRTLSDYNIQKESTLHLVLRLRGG

Binder | Kd [1] | stoichiometry N (crystal structure)
GST-OPTN UBAN (aa 420-509) S473E (domain or fragment, human, UniProt Q96CV9 420-509, looked up) RAVLKELSEKLELAEKALASKQLQMDEMKQTIAKQEEDLETMTILRAQMEVYCEDFHAERAAREKIHEEKEQLALQLAVLLKENDAFEDG | 508 nM | –
GST-OPTN UBAN (aa 420-509), wild type (domain or fragment, human, UniProt Q96CV9 420-509, looked up) RAVLKELSEKLELAEKALASKQLQMDEMKQTIAKQEEDLETMTILRAQMEVYCSDFHAERAAREKIHEEKEQLALQLAVLLKENDAFEDG | 916 nM | –
GST-ABIN-1 UBAN (aa 463-532), wild type (domain or fragment, mouse, UniProt Q9WUU8 463-532, looked up) LRKQELVTQNELLKQQVKIFEEDFQRERSDRERMNEEKEELKKQVEKLQAQVTLTNAQLKTLKEEEKAKE | 972 nM | –
ABIN-1 UBAN (mouse, aa 463-532), GST tag cleaved (domain or fragment, UniProt Q9WUU8 463-532, looked up) LRKQELVTQNELLKQQVKIFEEDFQRERSDRERMNEEKEELKKQVEKLQAQVTLTNAQLKTLKEEEKAKE | – | 2 chains in the oligomer
GST-NEMO UBAN (aa 250-339), wild type (domain or fragment, mouse, UniProt O88522 250-339, looked up) GMQLEDLRQQLQQAEEALVAKQELIDKLKEEAEQHKIVMETVPVLKAQADIYKADFQAERHAREKLVEKKEYLQEQLEQLQREFNKLKVG | 562 nM | –
GST-NEMO UBAN (aa 250-339) A303E (domain or fragment, mouse, UniProt O88522 250-339, looked up) GMQLEDLRQQLQQAEEALVAKQELIDKLKEEAEQHKIVMETVPVLKAQADIYKEDFQAERHAREKLVEKKEYLQEQLEQLQREFNKLKVG | 362 nM | –
